Tests used:
[1] = target: T1, human MSLN-R2-his protein (human, UniProt Q13421 391-486); test: ELISA, antibody 0.0001 nM
T1 construct: MSLN-R2 = Ser391-Asn486; also called hMSLN-R2-his; not shown: histidine tag

[2] = target: T1, human MSLN-R2-his protein; test: ELISA, antibody 0.01 nM
[3] = target: T2, human MSLN-R1-his protein (human, UniProt Q13421 296-390); test: ELISA, antibody 100 nM
T2 construct: MSLN-R1 = Glu296-Thr390; also called hMSLN-R1-his; not shown: histidine tag
T2 chain: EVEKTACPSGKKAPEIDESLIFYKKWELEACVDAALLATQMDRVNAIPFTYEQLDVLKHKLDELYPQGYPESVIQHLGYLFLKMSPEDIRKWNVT

[4] = target: T3, human MSLN-FL-his protein (human, UniProt Q13421 296-580); test: competitive ELISA on MSLN-FL-His; other antibody: Tab108 (R3) (3.m14)
T3 construct: Made in HEK293E cells, purified on nickel column; also called hMSLN-FL-his; not shown: histidine tag

[5] = target: T3, human MSLN-FL-his protein; test: competitive ELISA on MSLN-FL-His; other antibody: NB148-88 (3.m6)
[6] = target: T3, human MSLN-FL-his protein; test: competitive ELISA on MSLN-FL-His; other antibody: NB149-34 (3.m8)
[7] = target: T1, human MSLN-R2-his protein; test: ELISA, antibody 1 nM
[8] = target: T4, human MSLN-R3-his protein (human, UniProt Q13421 487-598); test: ELISA, antibody 0.0001 nM
T4 construct: MSLN-R3 = Met487-Ser598; also called hMSLN-R3-his; not shown: histidine tag
T4 sequence (Q13421 495-606): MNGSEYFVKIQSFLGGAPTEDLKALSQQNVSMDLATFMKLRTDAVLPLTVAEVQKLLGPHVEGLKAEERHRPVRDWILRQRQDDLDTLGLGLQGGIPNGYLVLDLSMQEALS

[9] = target: T1, human MSLN-R2-his protein; test: ELISA, antibody 0 nM (blank)
[10] = target: T4, human MSLN-R3-his protein; test: ELISA, antibody 100 nM
[11] = target: T2, human MSLN-R1-his protein; test: ELISA, antibody 0 nM (blank)
[12] = target: T2, human MSLN-R1-his protein; test: ELISA, antibody 10 nM
[13] = target: T2, human MSLN-R1-his protein; test: ELISA, antibody 1 nM
[14] = target: T4, human MSLN-R3-his protein; test: ELISA, antibody 0 nM (blank)

T1 sequence (Q13421 other isoform, or with tags, fused parts or gaps): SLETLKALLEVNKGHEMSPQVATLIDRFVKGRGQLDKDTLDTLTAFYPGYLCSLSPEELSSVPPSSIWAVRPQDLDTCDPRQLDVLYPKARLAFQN

B1: Tab107 (YP3, hIgG1) (antibody, V domains shown)
VH: QEQLVESGGGLVQPGASLTLTCTASGIDFSRYYMCWVRQAPGKGLEGIACIYIGGSGSTYYASWAKGRFTISKASSTTVTLQMTSLTAADTATYFCARGTNLNYIFRLWGPGTLVTVSS
VL: DVVMTQTPSPVSAAVGGTVTIKCQASQSINNGLAWYQQKPGQPPRLLIYSASNLESGVPSRFKGSGSGTEFTLTISDLECDDAATYYCQCIWDGNSYVNAFGGGTEVVVRT
notes: also called YP3 human IgG1 antibody
- OD450 nm [1]: 0.04
- OD450 nm [2]: 0.04
- OD450 nm [3]: 0.08
- inhibition rate [4]: 21%
- inhibition rate [5]: 4%
- inhibition rate [6]: -8%
- OD450 nm [7]: 0.05
- OD450 nm [8]: 0.05
- OD450 nm [9]: 0.05
- OD450 nm [10]: 0.09
- OD450 nm [11]: 0.05
- OD450 nm [12]: 0.06
- OD450 nm [13]: 0.05
- OD450 nm [14]: 0.05

Source: patent US20240124563A1 (NANJING ZAIMING PHARMACEUTICAL, published 2024)
